# Test results from patent US20180362652A1.
# How the values were obtained:
# human C1q (human) [1] = biological target: human C1q (human) (UniProt P02745); experiment: C1q ELISA: antibody coated in a dilution series, human C1q at 2 µg/mL, read at 450 nm; column C (midpoint, the C value of paragraph 430) of the printed 4-parameter fit; the axis reads Concentration with no unit, the unit of the coated antibody is from the legend paragraph 61; A 0.06, B 2.093, D 1.573, R^2 0.997
# human C1q (human) [2] = biological target: human C1q (human) (UniProt P02745); experiment: C1q ELISA: antibody coated in a dilution series, human C1q at 2 µg/mL, read at 450 nm; fit of a flat curve; the unit is from the legend paragraph 61, none on the axis; A 0.06, B 41.873, D 0.09, R^2 0.735
# [3] = biological target: human BDCA2 (full-length, cell surface) (human) (UniProt Q8WTT0); experiment: FACS dot plot (SSC-H against FL4-H) of the CHO cells EAG2456 T1F2 Clone 34.16.7 with high BDCA2 expression, stained with APC-labelled AC144; cells spread from about 10^1 to 10^4
# [4] = biological target: human BDCA2 (full-length, cell surface) (human) (UniProt Q8WTT0); experiment: FACS dot plot (SSC-H against FL4-H) of the CHO cells with lower BDCA2 expression used in FIG 22B, stained with APC-labelled AC144; gate from about 2x10^1 to 10^4
# human C1q (human), sequence (P02745 23-245 limits assumed, chain 1 of 3): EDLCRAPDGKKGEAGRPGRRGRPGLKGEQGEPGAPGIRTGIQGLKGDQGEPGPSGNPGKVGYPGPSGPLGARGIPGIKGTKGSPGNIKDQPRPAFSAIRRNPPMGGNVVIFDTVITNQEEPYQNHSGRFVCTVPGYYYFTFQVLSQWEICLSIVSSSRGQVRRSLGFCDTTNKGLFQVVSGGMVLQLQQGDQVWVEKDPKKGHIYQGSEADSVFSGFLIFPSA
# human C1q (human), sequence (P02746 28-253 limits assumed, chain 2 of 3, further chain): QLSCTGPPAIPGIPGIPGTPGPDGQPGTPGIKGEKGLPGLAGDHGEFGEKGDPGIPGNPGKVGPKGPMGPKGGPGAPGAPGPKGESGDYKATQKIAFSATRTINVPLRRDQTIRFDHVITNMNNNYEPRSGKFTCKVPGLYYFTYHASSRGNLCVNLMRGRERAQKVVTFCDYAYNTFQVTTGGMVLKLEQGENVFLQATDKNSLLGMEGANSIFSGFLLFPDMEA
# human C1q (human), sequence (P02747 29-245 limits assumed, chain 3 of 3, further chain): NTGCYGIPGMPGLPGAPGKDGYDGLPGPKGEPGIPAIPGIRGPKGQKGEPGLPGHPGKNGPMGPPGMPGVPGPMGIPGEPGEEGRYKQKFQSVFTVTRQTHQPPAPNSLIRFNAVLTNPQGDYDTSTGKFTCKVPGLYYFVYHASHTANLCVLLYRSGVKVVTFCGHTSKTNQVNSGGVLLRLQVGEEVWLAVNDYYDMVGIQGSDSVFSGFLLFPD
# human BDCA2 (full-length, cell surface) (human), sequence (Q8WTT0 whole entry): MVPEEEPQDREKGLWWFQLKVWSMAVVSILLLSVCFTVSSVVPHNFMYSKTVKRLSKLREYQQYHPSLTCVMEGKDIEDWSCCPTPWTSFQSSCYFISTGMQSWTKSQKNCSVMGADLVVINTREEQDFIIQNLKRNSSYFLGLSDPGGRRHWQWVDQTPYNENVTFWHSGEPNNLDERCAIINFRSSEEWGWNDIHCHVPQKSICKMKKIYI
# 5C8 control (antibody), sequence (heavy): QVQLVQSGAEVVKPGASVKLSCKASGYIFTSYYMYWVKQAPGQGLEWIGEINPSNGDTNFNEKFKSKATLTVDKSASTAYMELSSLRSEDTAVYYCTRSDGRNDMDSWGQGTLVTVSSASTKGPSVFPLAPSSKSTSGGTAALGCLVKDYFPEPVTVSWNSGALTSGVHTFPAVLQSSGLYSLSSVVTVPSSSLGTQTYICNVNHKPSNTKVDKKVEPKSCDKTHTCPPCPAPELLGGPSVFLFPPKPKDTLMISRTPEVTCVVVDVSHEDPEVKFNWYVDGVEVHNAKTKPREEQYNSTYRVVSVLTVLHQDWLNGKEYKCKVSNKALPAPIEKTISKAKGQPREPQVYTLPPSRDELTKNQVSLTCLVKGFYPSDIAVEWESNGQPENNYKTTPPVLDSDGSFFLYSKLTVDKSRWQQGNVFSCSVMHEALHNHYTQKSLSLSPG
# 5C8 control (antibody), sequence (light): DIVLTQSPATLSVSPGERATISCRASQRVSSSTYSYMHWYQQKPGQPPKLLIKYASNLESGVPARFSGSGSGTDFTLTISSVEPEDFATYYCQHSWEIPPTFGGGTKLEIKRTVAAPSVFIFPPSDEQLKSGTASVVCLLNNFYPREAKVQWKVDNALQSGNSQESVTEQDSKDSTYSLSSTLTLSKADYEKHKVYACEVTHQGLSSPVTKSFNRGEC
substance,measurement,setting,value
5C8 control (antibody),EC50,human C1q (human) [1],2.21 µg/mL
5c8 G4P/G1agly (antibody),"C of the 4-parameter fit (midpoint), curve flat",human C1q (human) [2],0.062 µg/mL
anti-human BDCA2 AC144 mAb (Miltenyi Biotec) (antibody),frequency printed in the FL4-positive gate (percent of cells),[3],99.4
same,frequency printed in the gate BDCA2 (percent of cells),[4],87.8
